Assay results as given in paper PMC5241945, “A new enzyme-linked immunosorbent assay (ELISA) for human free and bound kallikrein 9” (Clinical Proteomics, 2017).

Target: T1, human recombinant serpinA3 inhibitor (R&D systems) (human, UniProt P01011 24-423)
T1 construct: alpha-1-antichymotrypsin (serpinA3), human, recombinant; also called a1-antichymotrypsin; ACT; source: bought: R&D Systems
T1 sequence (looked up): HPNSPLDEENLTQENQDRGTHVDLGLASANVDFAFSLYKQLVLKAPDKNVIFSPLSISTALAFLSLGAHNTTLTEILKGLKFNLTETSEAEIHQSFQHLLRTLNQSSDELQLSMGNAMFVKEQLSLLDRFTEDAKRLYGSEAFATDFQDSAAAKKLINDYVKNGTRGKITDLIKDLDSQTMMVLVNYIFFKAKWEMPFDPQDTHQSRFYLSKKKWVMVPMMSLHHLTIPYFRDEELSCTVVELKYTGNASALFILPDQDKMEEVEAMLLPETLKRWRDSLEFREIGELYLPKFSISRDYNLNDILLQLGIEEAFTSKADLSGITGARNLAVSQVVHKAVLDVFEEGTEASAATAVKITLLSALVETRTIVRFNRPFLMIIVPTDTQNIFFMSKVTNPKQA
Experiment: ELISA; mat-KLK9 (0.5 μg) incubated alone or with recombinant serpinA3 at molar ratios KLK9/serpinA3 1/0.2, 1/0.5, 1/1 and 1/2 in 50 mM Tris-HCl pH 8.0, 1 h, 37 °C; the free KLK9 left was then measured by the sandwich ELISA (28ED436 / biotinylated 4ED28.2) as % recovery against the control without inhibitor
Details: both partners purified

B1: mature form of KLK9 (mat-KLK9) (aa 23–250), recombinant (enzyme, human, UniProt Q9UKQ9 23-250, looked up)
chain: AIGAEECRPNSQPWQAGLFHLTRLFCGATLISDRWLLTAAHCRKPYLWVRLGEHHLWKWEGPEQLFRVTDFFPHPGFNKDLSANDHNDDIMLIRLPRQARLSPAVQPLNLSQTCVSPGMQCLISGWGAVSSPKALFPVTLQCANISILENKLCHWAYPGHISDSMLCAGLWEGGRGSCQGDSGGPLVCNGTLAGVVSGGAEPCSRPRRPAVYTSVCHYLDWIQEIMEN
notes: Human tissue kallikrein 9 (KLK9), UniProt Q9UKQ9 (KLK9_HUMAN); mature form aa 23-250 of the pre-pro-enzyme (1-250), lacking the signal peptide and the pro-segment; Glycosylated: migrates at ~42 kDa, ~25 kDa after PNGase F; also called mature KLK9; kallikrein 9
B1: binds.
